The target in experiment [1] is SARS-CoV-2 3-chymotrypsin-like protease (3CL^pro) (SARS-CoV-2). Briefly: mass photometry; TwoMP mass photometer, proteins diluted in PBS to 10 nM, room temperature, 60 s; the monomer is too small to resolve.
Experiment [2] concerns the target catalytic domain of matrix metalloproteinase-14 (MMP14) (human) (UniProt P50281). Briefly: SPR; cat-MMP14 amine-coupled on a CM5 chip (Biacore T200); 3CL^pro (0.062-20 uM) or PL^pro (0.041-10 uM) flowed in PBSP (20 mM phosphate pH 7.4, 137 mM NaCl, 2.7 mM KCl, 0.05% P20), 30 uL/min, 180 s association, 300 s dissociation, 25 C; 1:1 Langmuir kinetic fit, KD = kd/ka. On the technique in general: SPR reads the build-up and loss of mass on a sensor chip optically.

The values below come from paper PMC12524713.

One may read the stoichiometry N as the number of molecules, sites or subunits per partner or assembly. The Kd is a measure of binding affinity in units of concentration. The term koff denotes the rate constant with which the complex falls apart. One may read the kon as the second-order rate constant of association. A lower kon goes with slow association. In experiment [1], “SARS-CoV-2 3-chymotrypsin-like protease (3CL^pro) (enzyme)” registered a stoichiometry N of 2. In addition, in experiment [2], the Kd is 3.21 µM, the koff was determined as 0.0012 s⁻¹ and the kon was determined as 386 M⁻¹ s⁻¹.
